The numbers were not newly measured in paper PMC8330535, which cites them from elsewhere.

This data set deals with ARNT PAS-B (Homo sapiens) (UniProt P27540). Particulars: cited from earlier work.
Chain of ARNT PAS-B (Homo sapiens) (P27540 356-470): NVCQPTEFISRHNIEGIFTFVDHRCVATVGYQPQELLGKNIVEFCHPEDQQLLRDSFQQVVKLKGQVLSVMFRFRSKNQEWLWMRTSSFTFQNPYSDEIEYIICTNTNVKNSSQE

Chain of HIF-1α PAS-B (Q16665 238-349): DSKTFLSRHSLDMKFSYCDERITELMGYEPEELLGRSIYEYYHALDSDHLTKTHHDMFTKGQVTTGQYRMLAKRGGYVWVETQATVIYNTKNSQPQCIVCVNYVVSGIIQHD

In general, Kd refers to the free concentration of one partner at which half of the binding sites on the other are occupied at equilibrium, for simple one-to-one binding. Turning to HIF-1α PAS-B (from UniProt Q16665), the Kd is 125 nM.
